Test results from the DeepSol protein solubility set.

Assay: soluble on expression in E. coli; label from the status in PepcDB or PDB records

| Sequence | soluble on expression in E. coli |
| --- | --- |
| TNCVTISQREILKGVEGVTWFEVLLEKTSCITIAAQNRPSIDLWLDDVKQSSVMASKEFCMKVEVSETQIAARCPTQGDATLPMEGKDDYVCKKTFSDRGWGNGCALFGKGSIVGCAKVACNTANVMKTHIYEQQAVQYVVGIEVHRGEVIKANVSDKVIKASFSAEAEKHTVEIPDYGSLDFTCRVVASADLSNIRLLEVDGHYFNVHEDWLDDLPLPWRINAGPWRGMDKLVNFREPYAVKMVIMGYGDQRPAVLGALDKAEEIKKVGDNYHLNGGHVSCKVSVAKLKLKGMTYVVCGGKFAWAKKPIATNHDTVAMEVTYTGNDTPCRVTVKNVKENSDDQGTLITTNPFVESNGATIFLELEPVYGLSTIKVGDITYQWNQQGSVIGKALEHHHHHH | not soluble |
| MPVDQSRQYLRIRDQLAADIAQGVLQVKLPSERELAERFLCTRITLREALQQLETEGLVYRENRRGWFVAPPRIRYNPTRTTGFMEYVSAQGRQPRTETLHAERRAAGAWLAKRMGLEDSAPVYFLQRRRWVDERPVLIELIALDAGWCPGLLDHDLDTSLMSLLRERFGLQPTRCQLAMHPTALNAAQAEPLQLAPGSPALYLERLSYAEGQRVVEFDQEFWRPDALEIVLDAAYPGA | not soluble |
| MGSDKIHHHHHHMAGGVSLKYILEQLAEERLGFLVNGHAMRQESQVGDLKVMERKKKLLEKRKVDIIKAKAKAVINHVRVEDDGTTCLSYTIHYEYVCKEQDDSLYIEEHIEERMAFLYDHILISDQEIAKKPAGFHEGTSIIDYSEAEEEREAFGRAFQYDRLGAVQYAEKFWNKRNPAYKNFSDNCTNFISQCLHAGGAPMRGHPNRGSGWWMKQSSWSYSWTVAHSMKMYLSNSKAGLRAVRVKSAEELMPGDVICYDFEGDGRFNHTTIVVAKDKGNMPLVNAQTYDSRMRYWSYEDSTAYTPSIRYAFFHIVDDTTKE | not soluble |
| MSLTSTIEELLTAARRRRVFSAAGWSVGTATTTLCRGLLGTTAWDPPATAVTEDSRWDLASMTKPIVAIAVMSLIEDGVLTLDDTIAEHLPDYADTDKARIRVANLLTHTSGIPGRQPLYQWNRARDELLTAIRRLPLLGPPGAQVSYSSPGFILLGLIAESAAGMPLDQLVAERVTRPAGMVDAGFASPPTELAVATEDDPWRGHLVRGEVHDENAVVLGAPAGHAGMFATLVDMEALGRTLCAQGWGAHGRVLTPAGYAAMITPRTDHLPLRRTLGWQGVDAVDATAGDLIGPDGYGHTGFTGTSLWIDPDRGSYVVLLTNRIHPNRENTAISRVRRAVNNIGFALASEGHHHHHH | soluble |
| MARLIVNALVSVPLAEIEIGFVRSGGAGGQNVNKLATAAHLRFDIAASSLPETCKTRLLDHRDRRMTAEGIIVIKAQRFGTQEKNREDALARLRGLILQALAQRRPRKPTRPTLAAKKKRLDEKTRHGEIKRLRRRIGDLEHHHHHH | not soluble |
| STTALCRMNMILHNSATADIAKGGSSTLSNPLFTTENGMLKTFDYVVANPPFS | not soluble |
| MTEPSTSGAQDHDDYLVTLSSPQRQCTIRVVQPASALKRKLPTSSVPEFNPDSYGESIPENAPRPVCETCSVAWSTWAAYEFHMLQTHIIYRPFRCSGCRNLNFHTEDEGKHHLEHFHGGKPGSFQLIKQTDFAKENQLIECLENAKTTEQLGISKERLENGLKMIEKLQKIKFKAVKVHLPCCLRHEMISKHTETEKEAPPQEKSVTNAQKPGNPALLSLESRNYDYEQQDTVGI | not soluble |
| SQGENVDHAQPISTWSAEQELHLVVFTKPPIAGLTKQRLSREIGSTLATRISAALVENTLATAYDWLQGLDLQAGGTGAVHLYYTPVESEQAKAECVERWLDDSVRHRYPAFRIAPQKASKVQSTGDQKQDPLGSRLIQAFTEVTSLVDESRDAHVVVIGSDCPALDTAVLQQAFAALHAGHGAVIGPAQDGGYYLLGLAFAAAERTRWARVIYAAFGPHLVFSQNDVCARTVEALRNDGVRTICLPVTLNDVDTAQDLVHLPASMRPREWFSSANARLHKTSDLVETAPAPGSTTCDEEVDADKLDPSVQNVCSRQV | soluble |
| MGSDKIHHHHHHAQTKSLHQLQQEFVDLRCGMFIHFNMPTFFNEDWPDPDAAPELFNPVRMDCKQWAKAAKSANMTYGCLTTKHHSGFCIWDTKTTDYSVMSSPFKRDVVKEYADAFRAEGMKVMLYYSILDTHARLRPKCITPQHIEMIKEQLRELLTNYGEITALIIDGWDAPWSRISYDDVPFEDIYRLVKSIQPNCLVMDLNAAKYPAEALFYTDIKSYEQGAGQHISKDTNRLPALSCLPLQQNWFWKESFPTTPVKSPAQMVNDNIIPMGKSYCNFILNVAPNRDGLMDANALKALKEIGKLWKNDGRVATVPEADAPIISSNIAKYQPAEGTWSSDYAIMDFANDDDFGTCWNSNPEVKVPWYSVTFEREKSFNMVVITDRNNDRLQEYRLEYRAGGTWKPLYEGKAPTGLRVKIHRFDTVWGDAVRMTVLNSNGTTSIAEFGVYCERR | not soluble |
| MGEHICFRRNERLATVNPYWRGNPMVRGRFFNRQHRFRPGMGSVLKWRLSPNPQRKEKKTVKWDPKVCYLRSLDAVVGDSLIWLGHNSFFLQLAGKRIMFDPVFGNIPFVKRQSEFPANPDIFTEIDYLLISHDHFDHLDKQSITRLLNNNPQMKLFCGLGTGELIKSWFPEMRVIEAGWYQQLEDEGLKITFLPAQHWSKRSVRDGGQRLWGAFMLQGNGVSLYYSGDTGYSTHFREIPDLFGAPDYALLGIGAYKPRWFMRPNHISPYESLTASEEMHAGITIPMHYGTFDLSDEPLHDPPKVFAAEAKKRKIRVEIPYLGEIVKLSKRK | not soluble |
| SLMAGSFCWRMLGLVSKVGNRARCFSSVAASEEELLDFSGSELQFNSCSLHLSLHPFFNFLLGIHSCFVCKESKTDVKRCVVTQCGKFYHEACVKKYPLTVFESRGFRCPLHSCVSCHASNPSNPRPSKGKMMRCVRCPVAYHSGDACLAAGCSVIASNSIICTAHFTARKGKRHHAHVNVSWCFVCSKGGSLLCCESCPAAFHPDCLNIEMPDGSWFCNDCRAGKKLHFQDIIWVKLGNYRWWPAEVCHPKNVPPNIQKMKHEIGEFPVFFFGSKDYYWTHQARVFPYMEGDRGSRYQGVRGIGRVFKNALQEAEARFREIKLQREARETQESERKPPPYKHIKVNKPYGKVQIYTADISEIPKCNCKPTDENPCGFDSECLNRMLMFECHPQVCPAGEFCQNQCFTKRQYPETKIIKTDGKGWGLVAKRDIRKGEFVNEYVGELIDEEECMARIKHAHENDITHFYMLTIDKDRIIDAGPKGNYSRFMNHSCQPNCETLKWTVNGDTRVGLFAVCDIPAGTELTFNYNLDCLGNEKTVCRCGASNCSGFLGDRPKTSTTLSSEEKGKKTKKKTRRRRAKGEGKRQSEDECFRCGDGGQLVLCDRKFCTKAYHLSCLGLGKRPFGKWECPWHHCDVCGKPSTSFCHLCPNSFCKEHQDGTAFSCTPDGRSYCCEHDLGAASVRSTKTEKPPPEPGKPKGKRRRRRGWRRVTEGK | soluble |
| MSLFTNLVKMGKKLKNLTKKYQLNKEKIEKFITVRKRLTFLGERPSVVEKPVVVKFGGTSVRYAFEEALELVANLNENTRTIVVVSALAGVTDCLLRLANGDMSALLEIEEIHEELSQELDVQLDHLMYQLHKTLNSKSSFPSKEAFVDEIASFGERFSAELFSEGLKILGINAKAVDSKDILFAKGDYGNAEVDFKKSVYGAGILYRMLRRGIVPVVTGYYGNLNGFRATFGRGGSDYSATSIARLVNAKATLIMSDVEGIYTADPKLVPSAKLIHYISYREAKIAAKLGMKALHHRAIDPVEGRIPVILGKTRDLKFGTLISHKSQGIPVVVHKLIEDHAEVSVVSTRRSFSLPYEVYEEGDFYFKIKIPKEQFLEVLKDIHRRVVENESLRPSYDSELWAWVEGHHHHHH | not soluble |
| GPGSMTDYIRDGQAIYDRSFAIIRAEADLRHIPADLEKLAVRVIHACGMVDVANDLAFSEGAGKAGRNALLAGAPILCDARMVAEGITRSRLPADNRVIYTLSDPSVPELAKKIGNTRSAAALDLWLPHIEGSIVAIGNAPTALFRLFELLDAGAPKPALIIGMPVGFVGAAESKDELAANSRGVPYVIVRGRRGGSAMTAAAVNALASERE | soluble |
| MSNEEARSAGDLRNTGLSLRHDRTWDYELDRIVDEVERKDAEKVGLQFPEGLKRRGPAVADDLRARLDDTRIMLSGQPCYGACDLDTYLMRRTDVFVHFGHSPMKESDSIIYVPLFSNVDVEPIMQEARDELHDGDVGLVTTAQHMNQFEEMRTWLEERGYTVHTRRGDDRLTNEGQVLGCNYASADIDADQVLYVGGGKFHPLGLAMEHPEKNVVIADPVNNAVSIADAEQFLKERYASVHKAMDAEQWGVIFCTKIGQGRFDQAEEIVENNDNAYLITMDEVTPDRLMNFDMDAFVNTGCPRITTDDGPQFHKPMLTPGEYEIAVGNKPLEDLSFDTFHGTWLEHHHHHH | not soluble |
| MPMFIVNTNVPRASVPDGFLSELTQQLAQATGKPPQYIAVHVVPDQLMAFGGSSEPCALCSLHSIGKIGGAQNRSYSKLLCGLLAERLRISPDRVYINYYDMNAANVGWNNSTFALEHHHHHH | soluble |
| MGFIMLLRSRFLKVIHVRKQLSACSRFAIQTQTRCKSTDASEDEVKHFQELAPTWWDTDGSQRILHKMNLTRLDFVQRTVRNQVKIQNPEIFVPGFNYKEFLPEYVCDNIQREMQESIETNLDKRPEVSVLDVGCGGGILSESLARLKWVKNVQGIDLTRDCIMVAKEHAKKDPMLEGKINYECKALEDVTGQFDIITCMEMLEHVDMPSEILRHCWSRLNPEKGILFLSTINRDLISWFTTIFMGENVLKIVPKGTHHLSKYINSKEILAWFNDNYSGQFRLLDLKGTMYLPYQGWVEHDCSDVGNYFMAIQRLN | not soluble |
| MRRNYSRVIDELRTDYGLNLVAIGQRLGTDPRTVGKWWQGKHNPNQESRKKLNRLYREVKETMMTQVNIFEEANDNTKQVMQVITTTNFHGQPLDIYGDIQEPLFLARAVAEMIDYTKTSQGYYDVQAMLRKVDEDEKLKGMALEGTTKNFRSGQKVWFLTEHGLYEVLMRSNKPKAKEFRKAVKNILKEIRLNGYYMQGELVQELAQPSTQKLPGISDLTYILNKLADLVDMDNLADISNGIDRVQQLVKLISL | not soluble |
| MDWEKVGLKMGLEIHQQLDTESKLFCPCRTELTDSEPDHDIVRNLRPTQSELGKFDRAAFEEAMRKLHFHYENYHEETCLVEADEEPPHPLNPEALEIAVTIALLLNMRVVDEFHTMRKQVIDGSNTGGFQRTGLVATDGHLETPQGTVKIENLCLEEDAARRIRETGDGVVFRLDRLGIPLVEITTDPSMSDPQQLREVAYQIGQILRSTRVKRGLGTIRQDLNISIRDGARVEVKGVQDLDLIPEIVEREVKRQLSLVEIRDTLQERGAVVEDKIFDVSEVFADTESRIISSAESVLAVKLRGFDGLIGVEIQPGRRLGTEMADYAKKRGVSGIFHTDELPAYGITEEEVRGLRDAVGASQGDAVVMVAHERVTAENALREVIRRAEMAIQGVPEETRKALPDGNTQYLRPLPTSSRMYLETDIPLFRIEDDLLEGIRRNLPELPSEKKERIMRDYGLSEDLASQLVKRNLVDEFEALTEFRVDTTVIASLLAYTLRELRREGHDVDGLGLDELRDAIKLLEVGKISKDALRDIVACMADEGLAAEDAARKLNLLLLAEDEIESIIQEIVEGNLDMISERGMGAMGPLMGQAMGRLRGRADGKVVNRILREKIQERL | soluble |
| KKDDFRNEFDHLLIEQANHAIEKGEHQLLYLQHQLDELNENKSKELQEKIIRELDVVCAMIEGAQGALERELKRTDLNILERFNYEEAQTLSKILLKDLKETEQKVKDIQTQ | soluble |
